# According to PMC8809517, “Cofactor-independent RNA editing by a synthetic S-type PPR protein”:
# Changes are numbered by the printed parent chain.
# T1: GFP-9S library array, motif 4 ND N98S;D124I (synthetic construct, N98S;D124I)
# T1 chain: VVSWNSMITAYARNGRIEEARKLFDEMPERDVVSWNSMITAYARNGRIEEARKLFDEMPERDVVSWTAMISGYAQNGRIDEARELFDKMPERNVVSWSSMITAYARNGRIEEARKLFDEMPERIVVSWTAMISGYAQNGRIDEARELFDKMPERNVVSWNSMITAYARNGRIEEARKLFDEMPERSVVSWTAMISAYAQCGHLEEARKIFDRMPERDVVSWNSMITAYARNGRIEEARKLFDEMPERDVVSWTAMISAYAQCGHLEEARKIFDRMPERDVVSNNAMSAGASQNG
# T2: GFP-9S library array, motif 4 ND N98I;D124R (synthetic construct, N98I;D124R)
# T2 chain: T1 chain with S98I, I124R
# T3: GFP-9S library array, motif 4 ND N98W;D124R (synthetic construct, N98W;D124R)
# T3 chain: T1 chain with S98W, I124R
# T4: GFP-9S library array, motif 4 ND N98D;D124K (synthetic construct, N98D;D124K)
# T4 chain: T1 chain with S98D, I124K
# T5: GFP-9S library array, motif 4 ND N98R;D124K (synthetic construct, N98R;D124K)
# T5 chain: T1 chain with S98R, I124K
# Tests used:
# Experiment in all cases: high-throughput RNA pulldown from lysate on Ni-NTA beads; HRP: 50 mM Tris pH 8, 150 mM NaCl, 1 mM beta-mercaptoethanol, 50 ug/ml BSA, 3 ug/ml yeast RNA, 0.5% heparin; ITC and FP: Tris pH 8, 200 mM KCl, 5% glycerol; MST: 50 mM Tris pH 8, 200 mM NaCl, 1 mM DTT, BSA, heparin, 0.05% Tween 20
# Details in all cases: tags: N-terminal His-eGFP
# [1] = target: T1, GFP-9S library array, motif 4 ND …
# [2] = target: T2, GFP-9S library array, motif 4 ND …
# [3] = target: T3, GFP-9S library array, motif 4 ND …
# [4] = target: T4, GFP-9S library array, motif 4 ND …
# [5] = target: T5, GFP-9S library array, motif 4 ND …
Binder,Kd ([1]; label: 5' Cy5),Kd ([2]; label: 5' Cy5),Kd ([3]; label: 5' Cy5),Kd ([4]; label: 5' Cy5),Kd ([5]; label: 5' Cy5),Kd ([1]; label: 5' IRDye 800CW),Kd ([2]; label: 5' IRDye 800CW),Kd ([3]; label: 5' IRDye 800CW),Kd ([4]; label: 5' IRDye 800CW),Kd ([5]; label: 5' IRDye 800CW)
AUUAGACGUGA (ssRNA) [Cy5-rpoA-G],71.4 nM,97.3 nM,90.3 nM,134 nM,161 nM,–,–,–,–,–
AUUACACGUGA (ssRNA) [Cy5-rpoA],74.7 nM,86.4 nM,113 nM,154 nM,136 nM,–,–,–,–,–
AUUAUACGUGA (ssRNA) [IR-rpoA-U],–,–,–,–,–,152 nM,113 nM,317 nM,475 nM,202 nM
AUUAAACGUGA (ssRNA) [IR-rpoA-A],–,–,–,–,–,113 nM,168 nM,206 nM,334 nM,420 nM
